# According to US12202907B2, “Nucleic acids encoding and methods of producing proteins comprising antibody chains” (Innate Pharma, priority 2018, dated 2025):
# Numbering of substitutions follows the chain as printed.
# T1: soluble recombinant human CD39 protein (Homo sapiens, UniProt P49961)
# T1 construct: made in house; host or cells: CHO cells
# T1 sequence (P49961 with tags, fused parts or gaps): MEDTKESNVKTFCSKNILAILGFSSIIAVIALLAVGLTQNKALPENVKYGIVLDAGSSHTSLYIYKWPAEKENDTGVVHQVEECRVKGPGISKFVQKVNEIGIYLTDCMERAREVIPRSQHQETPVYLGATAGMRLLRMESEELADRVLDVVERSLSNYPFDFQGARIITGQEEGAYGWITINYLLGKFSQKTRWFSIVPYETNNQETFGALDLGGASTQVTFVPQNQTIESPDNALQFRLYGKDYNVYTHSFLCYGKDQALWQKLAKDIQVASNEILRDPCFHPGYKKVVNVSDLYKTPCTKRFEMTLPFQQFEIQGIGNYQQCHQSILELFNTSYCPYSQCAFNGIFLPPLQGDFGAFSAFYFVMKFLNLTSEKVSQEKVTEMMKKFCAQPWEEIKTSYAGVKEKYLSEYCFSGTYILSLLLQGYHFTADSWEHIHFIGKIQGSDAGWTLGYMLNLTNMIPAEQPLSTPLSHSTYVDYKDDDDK
# T2: CD39 expressed by Ramos human lymphoma cells (Homo sapiens, UniProt P49961)
# T2 construct: cells that endogenously express CD39 at their surface; host or cells: Ramos
# T2 sequence (P49961 1-510): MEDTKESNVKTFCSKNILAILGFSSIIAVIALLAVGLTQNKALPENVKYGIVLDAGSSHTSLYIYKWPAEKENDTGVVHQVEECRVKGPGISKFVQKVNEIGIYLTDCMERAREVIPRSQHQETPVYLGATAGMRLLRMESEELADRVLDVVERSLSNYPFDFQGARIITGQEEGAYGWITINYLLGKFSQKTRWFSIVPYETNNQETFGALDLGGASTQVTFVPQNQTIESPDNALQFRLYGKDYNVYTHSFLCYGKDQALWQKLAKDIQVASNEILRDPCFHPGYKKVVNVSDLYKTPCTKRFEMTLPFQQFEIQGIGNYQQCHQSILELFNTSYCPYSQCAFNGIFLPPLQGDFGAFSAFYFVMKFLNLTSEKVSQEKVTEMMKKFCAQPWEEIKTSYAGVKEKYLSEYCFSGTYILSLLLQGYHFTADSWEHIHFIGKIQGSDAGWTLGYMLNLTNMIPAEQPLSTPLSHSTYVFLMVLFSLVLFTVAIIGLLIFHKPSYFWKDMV
# T3: membrane-bound CD39 in Mino tumor cells (Homo sapiens, UniProt P49961)
# T3 construct: endogenous in cells; host or cells: Mino
# T3 sequence (P49961 1-510): T2 sequence (P49961 1-510)
# T4: human Ramos lymphoma cells (CD39) (Homo sapiens, UniProt P49961)
# T4 construct: cells that endogenously express CD39 at their surface; host or cells: Ramos
# T4 sequence (P49961 1-510): T2 sequence (P49961 1-510)
# B1: mAb20: humanized I-394 variant, VH H4 (SEQ ID NO: 31), VL L1 (SEQ ID NO: 36); heavy chain SEQ ID NO: 38, light chain SEQ ID NO: 39 (antibody)
# heavy: QVQLVQSGAEVKKPGASVKVSCKASGYTFTDYNMHWVRQAPGQRLEWIGYIVPLNGGSTFNQKFKGRATITVDTSARTAYMELSSLRSEDTAVYYCARGGTRFAYWGQGTLVTVSSASTKGPSVFPLAPSSKSTSGGTAALGCLVKDYFPEPVTVSWNSGALTSGVHTFPAVLQSSGLYSLSSVVTVPSSSLGTQTYICNVNHKPSNTKVDKRVEPKSCDKTHTCPPCPAPEAEGAPSVFLFPPKPKDTLMISRTPEVTCVVVDVSHEDPEVKFNWYVDGVEVHNAKTKPREEQYNSTYRVVSVLTVLHQDWLNGKEYKCKVSNKALPSSIEKTISKAKGQPREPQVYTLPPSREEMTKNQVSLTCLVKGFYPSDIAVEWESNGQPENNYKTTPPVLDSDGSFFLYSKLTVDKSRWQQGNVFSCSVMHEALHNHYTQKSLSLSPGK
# light: DIVMTQSPDSLAVSLGERATINCRASESVDNFGVSFMYWFQQKPGQPPKLLIYGASNQGSGVPDRFSGSGSGTDFTLTISSLQAEDVAVYYCQQTKEVPYTFGGGTKVEIKRTVAAPSVFIFPPSDEQLKSGTASVVCLLNNFYPREAKVQWKVDNALQSGNSQESVTEQDSKDSTYSLSSTLTLSKADYEKHKVYACEVTHQGLSSPVTKSFNRGEC
# B2: mAb8: humanized I-394 variant, VH H2 (SEQ ID NO: 29), VL L1 (SEQ ID NO: 36) (antibody, V domains shown)
# VH: QVQLVQSGAEVKKPGASVKVSCKASGYTFTDYNMHWVRQAPGQRLEWMGYIVPLNGGSTFNQKFKGRATITVDTSASTAYMELSSLRSEDTAVYYCARGGTRFAYWGQGTLVTVSS
# VL: DIVMTQSPDSLAVSLGERATINCRASESVDNFGVSFMYWFQQKPGQPPKLLIYGASNQGSGVPDRFSGSGSGTDFTLTISSLQAEDVAVYYCQQTKEVPYTFGGGTKVEIK
# B3: mAb15: humanized I-394 variant, VH H3 (SEQ ID NO: 30), VL L1* (SEQ ID NO: 37) (antibody, V domains shown)
# VH: B2 VH with M48I
# VL: B2 VL with R24K
# B4: mAb24: humanized I-394 variant, VH H4* (SEQ ID NO: 34), VL L1* (SEQ ID NO: 37) (antibody, V domains shown)
# VH: B2 VH with M48I, N61S, K65Q, S77R
# VL: B2 VL with R24K
# B5: mAb14: humanized I-394 variant, VH H3 (SEQ ID NO: 30), VL L1 (SEQ ID NO: 36) (antibody, V domains shown)
# VH: B2 VH with M48I
# VL: B2 VL
# B6: mAb9: humanized I-394 variant, VH H2 (SEQ ID NO: 29), VL L1* (SEQ ID NO: 37) (antibody, V domains shown)
# VH: B2 VH
# VL: B2 VL with R24K
# B7: mAb23: humanized I-394 variant, VH H4* (SEQ ID NO: 34), VL L1 (SEQ ID NO: 36) (antibody, V domains shown)
# VH: B2 VH with M48I, N61S, K65Q, S77R
# VL: B2 VL
# What was measured:
# [1] = target: T1, soluble recombinant human CD39 protein; assay: Inhibition of the enzymatic activity of soluble CD39 (Cell Titer Glo, cell-free); format: biochemical; conditions: humanized variants
# Description: (§1) The inhibition by antibodies of the enzymatic activity of soluble CD39 protein produced was evaluated using Cell Titer GIo™ (Promega, reference G7571) that allows assessment of ATP hydrolysis through use of a reagent that generates a luminescent signal proportional to the amount of ATP present. In this way, inhibition of the soluble-CD39-meidated ATP hydrolysis can be assessed. Briefly, dose ranges of anti-CD39 antibodies from 100 μg/ml to […] were incubated with 400 ng/ml of soluble recombinant human CD39 protein having the amino acid sequence described in the Methods section (SEQ ID NO: 44), for 1 h at 37° C. 20 μM ATP was added to the plates for 30 additional minutes at 37° C. before addition of CTG (Cell Titer Glo) reagent. Emitted light was quantified using an Enspire™ luminometer after a short incubation period of 5 min in the dark. Anti-CD39 antibody efficacy was determined by comparing emitted light in presence of antibody with ATP alone (maximal light emission) and ATP together with soluble CD39 protein (minimal light emission).
# [2] = target: T2, CD39 expressed by Ramos human lymphoma cells; assay: Inhibition of the enzymatic activity of cellular CD39 in Ramos cells; format: cell-based; conditions: Ramos cells
# Description: (§2) The inhibition of the CD39 enzymatic activity in CD39-expressing cells by antibodies was evaluated using Cell Titer GIo™ (Promega, reference G7571) that allows assessment of ATP hydrolysis through use of a reagent that generates a luminescent signal proportional to the amount of ATP present. The assay was thus designed to permit assessment of the inhibition of ATP hydrolyzed by CD39 in the cell culture supernatant. Briefly, 5×10^4 Ramos human lymphoma cells, 5×10^3 human CD39−, cynomolgus CD39—and mouse CD39− expressing CHO cells, were incubated 1 hour at 37° C. with anti-CD39 antibodies from 30 μg/ml to 5×10^−4 μg/ml. Cells were then incubated with 20 μM ATP for 1 additional hour at 37° C. Plates were centrifuged for 2 min at 400 g and 50 μl cell supernatant are transferred in a luminescence microplate (white wells). 50 μl CellTiter-Glo™ Reagent (CTG) was added to the supernatant and emitted light was quantified after a 5 min incubation in the dark using a Enspire™ luminometer. Anti-CD39 antibody efficacy was determined by comparing emitted light in presence of antibody with ATP alone (maximal light emission) and ATP together with cells (minimal light emission).
# [3] = target: T3, membrane-bound CD39 in Mino tumor cells; assay: Inhibition of the enzymatic activity of cellular CD39 in Mino cells; format: cell-based
# Description: as §2
# Antibodies were tested for potency in inhibition of ATPase activity in cell lines that express membrane-bound CD39. […]
# [4] = target: T4, human Ramos lymphoma cells (CD39); assay: Antibody titration on Ramos cells by flow cytometry; format: binding; conditions: comparison
# Description: Antibody I-394 was tested in two repeated experiments for binding to CHO cells expressing human CD39, CHO cells expressing cynomolgus (Macaca fascicularis) CD39, CHO cells expressing murine CD39, and human Ramos lymphoma cells (ATCC™, reference CRL-1596). Cells were incubated with various concentration of unlabeled anti-CD39 antibody from 30 μg/ml to 5×10^−4 μg/ml, for 30 minutes at 4° C. After washes, cells were incubated with Goat anti-mouse H+L labeled secondary antibody for 30 min at 4° C.
# [5] = tested on: soluble CD39 protein released in cell culture supernatant from CHO cells expressing human CD39; assay: Inhibition of ATPase activity of soluble CD39 released in CHO-huCD39 culture supernatant; format: biochemical; conditions: humanized variants
# Description: as §1
# Antibodies were tested for capacity to inhibit the ATPase activity of soluble CD39 protein using the assays used for inhibition of the enzymatic activity of soluble CD39 as described above (Methods). […]
# [6] = Stability in reference formulation (storage, freeze thaw); format: physicochemical; conditions: about 7 mg/mL, pH 6.0 histidine/sucrose/NaCl/PS80, +5° C. and +40° C., up to 1 month
# Description: (§3) Antibodies mAb1-24 and prior art anti-CD39 antibody BY40, all produced as human IgG1 isotypes with L234A/L235E/G237A/A330S/P331S substitutions were tested for stability in the following reference formulation at a concentration of approximatively 7 mg/mL: pH 6.0; histidine buffer (10 mM); sucrose (200 mM); NaCl (50 mM); Polysorbate 80 (PS80) (0.2 g/L). The stability of the formulations was monitored in two storage conditions (at +5° C.±3° C. and at +40±3° C. For each study, 3 time points were performed: T0, T15D (15 days) and T1M (1 month). A freeze thaw (F/T) and a thermal shift stability assay (TSSA) were conducted for the format comparison. To perform F/T cycles, the samples were frozen at least 2 hours at −20° C. and thawed at least 1 hour at room temperature, the F/T cycle is repeated three times and samples are tested 24 h after the last Freeze/Thaw cycle. At each time point, the following tests were performed: • Particulate Matter (MFI) • Visual Inspection (Appearance) • Impurities (SE-HPLC) • Turbidity (400 nm) • Protein Concentration (280 nm) (performed with Nanodrop, Thermo Fisher Scientific Inc.)
# [7] = Aggregation temperature (thermal shift stability assay); format: physicochemical; conditions: human IgG1 with L234A/L235E/G237A/A330S/P331S
# Description: as §3
Molecule,potency for inhibition of soluble CD39 relative to parental I-394 [1],potency at blocking CD39 enzymatic activity relative to other antibodies [2],binding to Ramos cells relative to I-394 [4],physicochemical stability [6],Aggregation temperature (TAgg) [7],also measured
B1,comparable to the parental I-394 antibody,more potent at blocking CD39 enzymatic activity compared to all other antibodies,best binding,good physicochemical stability,~70 °C,"potency at blocking CD39 enzymatic activity relative to other antibodies [3]: more potent at blocking CD39 enzymatic activity compared to all other antibodies; potency relative to parental I-394, soluble CD39 in CHO-huCD39 supernatant [5]: comparable to the parental I-394 antibody"
B2,,,best binding,good physicochemical stability,~70 °C,
B3,comparable to the parental I-394 antibody,,,,,
B4,,slightly lower potency than mAb20 and mAb21,,,,
B5,comparable to the parental I-394 antibody,,,,,
B6,,,best binding,good physicochemical stability,~70 °C,
B7,,slightly lower potency than mAb20 and mAb21,,,,
